Measured values as given in the nanobody polyreactivity screen of Harvey et al. (2022).

experiment: yeast display, Sf9 membrane polyspecificity reagent, FACS + sequencing; frameworks hold sequencing errors
In short: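 Galactose induction of a Saccharomyces cerevisiae BJ5465 synthetic nanobody display library ran 36–48 hours. The cells were then stained for 1 hour at 4 °C with 10% biotinylated, detergent-solubilized Sf9 membrane reagent, pulled down on streptavidin microbeads and FACS-sorted into low and high (top ~1%) gates on expression and reagent-binding fluorescence. Labels for polyreactivity follow the gate of origin.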

Question: With “QVQLVESGGGLVQAGGSLRLSCAASGSTFTYNAMGWYRHAPGKERELVASISSGTTTYYADSVKGRFTISRDNAKNTVYLQLNSLKPEDTAVYFCAVDSWSRVQGWLAHNYDYWGQGTQVTVSS” as the sequence, how does the “polyreactivity (PSR sort gate)” value read?
Answer: low polyreactivity

Question: With “QVQLVESGGGLVQAGGSLRLSCAASGSTFTYNAMGWYRQAPGKVRELVASISSGTTTYYADSVKGRFTISRDNAKNTVYLQMNSLTPEDTAVYYCAVDSWSRVQGWLAHNYDYWGQGTQVTVSS” as the sequence, how does the “polyreactivity (PSR sort gate)” value read?
Answer: low polyreactivity

Question: For “QVQLVESGGGLVQAGGSLRLSCAASGSTFTYNDMGWYRQAPGKERELVARITFSSGRTYYADSVKGRFTISRDNAKNTVYLQMNSLKPEDTAVYYCARQWYWRPGYYIGQGYEYWGQGTQVTVSS”, which “polyreactivity (PSR sort gate)” value is on record?
Answer: low polyreactivity

Question: Which “polyreactivity (PSR sort gate)” value does the source give for “QVQLVESGGGLVQAGGSLRLSCAASGSTFTYYAMGWYRQAPGKERELVAAIDFSGTSTYYADSVKGRFTISRDNAKNTVYLQMNRLKPEDTAVYYCAASQSWYWGGAHDNGEFGYWGQGTQVTVSS” here?
Answer: low polyreactivity

Question: Which “polyreactivity (PSR sort gate)” value does the source give for “QVQLVESGGGLVQAGGSLRLSCAASGSTFTYYAMGWYRQAPGKERELVAAISRGGRTNYADSVKGRFTISRDNAKNTVYLQMNSLKPEDTAVYFCAAVVFRTGIWFDYWGQGTQVTVSS” here?
Answer: high polyreactivity

Question: With “QVQLVESGGGLVQAGGSLRLSCAASGSTFTYYAMGWYRQAPGKERELVAAITSGGSTNYADSVKGRFTISRDNAKNTVYLQMNSLKPEDTAVYYCAAEYVRQNYEMDYWGQGTQVTVSS” as the sequence, how does the “polyreactivity (PSR sort gate)” value read?
Answer: low polyreactivity

Question: Which “polyreactivity (PSR sort gate)” value does the source give for “QVQLVESGGGLVQAGGSLRLSCAASGSTFTYYTMGWYRQAPGKERELVAAITSGTSTNYADSVKGRFTISRDNAKNTVYLQMNSLKPEDTAVYYEYDYWGQGTQVTVSS” here?
Answer: low polyreactivity

Question: For “QVQLVESGGGLVQAGGSLRLSCAASGSTFTYYTMGWYRQAPGKERELVAAITSGTSTNYADSVKGRFTISRDNAKNTVYLQMNSLTPEDTAVYYEYDYWGQGTQVTVSS”, which “polyreactivity (PSR sort gate)” value is on record?
Answer: low polyreactivity

Question: With “QVQLVESGGGLVQAGGSLRLSCAASGSTFVAYAMGWYRHAPGKERELVADISTSDGSTRYADSVKGRFTISSDNAKNTVYLQMISLKPEDTAVYYCGAGSEYYSYGGVRFSFYYWGQGTQVTVSS” as the sequence, how does the “polyreactivity (PSR sort gate)” value read?
Answer: low polyreactivity

Question: With “QVQLVESGGGLVQAGGSLRLSCAASGSTFVAYAMGWYRQAPGKERELVAAISSVGRTNYADSVKGRFTISRDNAKNTVYLQMNSLIPEDTAVYYCNVEPGGITRQEYDYWGQGTQVTVSS” as the sequence, how does the “polyreactivity (PSR sort gate)” value read?
Answer: high polyreactivity

Question: For “QVQLVESGGGLVQAGGSLRLSCAASGSTFVCYGMGWYRQAPGKEREFVAAISTSGGRTYYADSVKGRFSISRDNAKNTVYLQMNSLKQEDTAVYYCATRPYFTYRWYDYWGQGTKVTVSS”, which “polyreactivity (PSR sort gate)” value is on record?
Answer: high polyreactivity

Question: Which “polyreactivity (PSR sort gate)” value does the source give for “QVQLVESGGGLVQAGGSLRLSCAASGSTFVDYAMGWDRQAPGKERELVAGINGSGGSTYYADSVKGRFTISRDNAKNTVYLQMNSLKPEDTAVYYCAKDGSNRLALPAWDYNYWGQGTQVTVSS” here?
Answer: low polyreactivity

Question: With “QVQLVESGGGLVQAGGSLRLSCAASGSTFVDYAMGWYRQAPGKERELVAAINERGGSTYYADSVKGRFTISRDNAKNTVYLQMNSLKPEDTAVYYCAKQLWVGVKYDYWGQGTQVTVSS” as the sequence, how does the “polyreactivity (PSR sort gate)” value read?
Answer: low polyreactivity

Question: With “QVQLVESGGGLVQAGGSLRLSCAASGSTFVDYDMGWYRQAPGKERELVAAITYSGARTYYADSVKGRFTISRDNAKNTVYLKMNSLKPEDTAVYYCNADQRSASDQLEFDYWGQGTQVTVSS” as the sequence, how does the “polyreactivity (PSR sort gate)” value read?
Answer: low polyreactivity

Question: Which “polyreactivity (PSR sort gate)” value does the source give for “QVQLVESGGGLVQAGGSLRLSCAASGSTFVDYYMGWYRQATGKERELVAAITYSGARTYYADSVKGRFTISRDNAKNTVYLQMNSLKPEDTAVYYCNADQSTASDQLEFDYWGQGTQVTVSS” here?
Answer: low polyreactivity

Question: For “QVQLVESGGGLVQAGGSLRLSCAASGSTFVFNAMGWYRQAPGKERELVAAISIDGSTNYADSVKGRFTISRDNANNSVYLQMNSLKPEDTAVYYCNAKRYGFFYWQGDYWGQGTQVTVSS”, which “polyreactivity (PSR sort gate)” value is on record?
Answer: low polyreactivity

Question: With “QVQLVESGGGLVQAGGSLRLSCAASGSTFVFNAMGWYRQAPGKERELVARITTGGSTHYADSVKGRFTISRDNAKNTVYLQMNSLKPEDTAVYYCNTGPYTFDSPEYYYWGQGTQVTVSS” as the sequence, how does the “polyreactivity (PSR sort gate)” value read?
Answer: low polyreactivity

Question: With “QVQLVESGGGLVQAGGSLRLSCAASGSTFVGYAMGCYRQAPGKERELVATISWIGVRTYYADSVKGRFTISRDNAKNTVYLQMNSLKPEDTAVYYCANRKGYSARSFWRLYEPENDYWGQGTQVNVSS” as the sequence, how does the “polyreactivity (PSR sort gate)” value read?
Answer: high polyreactivity

Question: For “QVQLVESGGGLVQAGGSLRLSCAASGSTFVGYAMGWYRQAPGKERELVAAISWRGTRTYYADSVKGRFTISRDNAKNTVYLQMNSLKPEDTAVYYCAAVARQGKGYDYWGQGTQVTVSS”, which “polyreactivity (PSR sort gate)” value is on record?
Answer: high polyreactivity

Question: Which “polyreactivity (PSR sort gate)” value does the source give for “QVQLVESGGGLVQAGGSLRLSCAASGSTFVGYAMGWYRQAPGKERELVADIDSIGGSTYYADSVKGRFTISRDNAKNTVYLQMNSLKPEDTAVYYCAARRFDTALVLYDYCGQGTQVTVSS” here?
Answer: low polyreactivity

Question: Which “polyreactivity (PSR sort gate)” value does the source give for “QVQLVESGGGLVQAGGSLRLSCAASGSTFVGYAMGWYRQAPGKERELVADIDSIGGSTYYADSVKGRFTISRDNAKNTVYVQMNSLKPEDTAVYYCAARRFDTALVLYDYWGQGTQVTVSS” here?
Answer: low polyreactivity

Question: For “QVQLVESGGGLVQAGGSLRLSCAASGSTFVGYAMGWYRQAPGKERELVADIDSIGGSTYYADSVKRRFTISRDNAKNTVYLQMNSLKPEDTAVYDCAAYQHPGLRTSYEYWGQGTQVTVSS”, which “polyreactivity (PSR sort gate)” value is on record?
Answer: low polyreactivity

Question: For “QVQLVESGGGLVQAGGSLRLSCAASGSTFVGYAMGWYRQAPGKERELVADITSGGGITYYADSVKGRFTISRDNAKNTVYLQMNSLKPEDTAVYYCAVQYYNVLYYQYDYWGQGTQVTVSS”, which “polyreactivity (PSR sort gate)” value is on record?
Answer: low polyreactivity

Question: With “QVQLVESGGGLVQAGGSLRLSCAASGSTFVGYAMGWYRQAPGQERELVAGITINGGSTYYADSVKGRFTISRDNAKNTVYLQMNSLKPEDTAVYYCAATGNENYPDPLQSMDYWGQGTQVTVSS” as the sequence, how does the “polyreactivity (PSR sort gate)” value read?
Answer: low polyreactivity

Question: With “QVQLVESGGGLVQAGGSLRLSCAASGSTFVGYAMGWYRQAPGTERDLVAAISSSGSTNYADSVKGRFTISRDNAKNTVYLQMNSLKPEDTAVYYCAALYSYFWLIIDYGYWGQGTQVTVSS” as the sequence, how does the “polyreactivity (PSR sort gate)” value read?
Answer: low polyreactivity

Question: For “QVQLVESGGGLVQAGGSLRLSCAASGSTFVINAMGWYRQAPGKERELVAAISYDGGGTYYADSVKGRFTISRDNAKNTVYLQMNSLKPEDTAVYYCAAENFYPYTYYASDYWGQGTQVTVSS”, which “polyreactivity (PSR sort gate)” value is on record?
Answer: high polyreactivity

Question: Which “polyreactivity (PSR sort gate)” value does the source give for “QVQLVESGGGLVQAGGSLRLSCAASGSTFVKNSMGLYRQAPGKERELVAVISWPGSSTYYADSVKGRFTISRDNAKNTDYLQMISLKPEDTAVYYCNAPKIRPGSHTRHYYWGQGTQVTVSS” here?
Answer: low polyreactivity

Question: Which “polyreactivity (PSR sort gate)” value does the source give for “QVQLVESGGGLVQAGGSLRLSCAASGSTFVKYAMGWYRQAPGKERELVAVISSAGSTNYADSVKGRFTISRDNAKNTVYLQMNSLKPEDTAVYYCNAEPTTPYWDYWAYEDDYWGQGTQVTVSS” here?
Answer: low polyreactivity

Question: With “QVQLVESGGGLVQAGGSLRLSCAASGSTFVLYALGWYRQPPGKERELVAVISWSGGSTYYADSVKGRFTISRDKAKNTVYLQMNSLKPEDTADYYCAATGWSSFYYRFDYWGQGTQVTVSS” as the sequence, how does the “polyreactivity (PSR sort gate)” value read?
Answer: low polyreactivity

Question: Which “polyreactivity (PSR sort gate)” value does the source give for “QVQLVESGGGLVQAGGSLRLSCAASGSTFVNNAMGWYRQAPGKERELVAAISWSGGSTYYADSVKGRFTISRDNAKNTVYLQMNSLNPEDTAVYYCAADGNARAAMDYWGQGTQVTVSS” here?
Answer: low polyreactivity

Question: Which “polyreactivity (PSR sort gate)” value does the source give for “QVQLVESGGGLVQAGGSLRLSCAASGSTFVNNAMGWYRQAPGKERELVAAITNGGSTNYADSVKGRFTISRDNAKNTVYLQMNSLKPEDTAVYYCAKYGDPYRHRSGTVEYGYWGQGTQVTVSS” here?
Answer: low polyreactivity

Question: With “QVQLVESGGGLVQAGGSLRLSCAASGSTFVPNAMGGSRPAPGKERELVAAISYSGGTTYYADSVKGRFTISRDNAKNTVYLQMNSLKPEDTAVYYCAARSKGAAAILDDYWGQGTQVTVSS” as the sequence, how does the “polyreactivity (PSR sort gate)” value read?
Answer: low polyreactivity

Question: For “QVQLVESGGGLVQAGGSLRLSCAASGSTFVPNAMGWYRQAPGKEREFVAAIRVSGDNTYYADSVKGRFTISRDNAKNTVYLQMNSLKPEDTGVYYCAATGTVLGSVDYWGQGTQVTVSS”, which “polyreactivity (PSR sort gate)” value is on record?
Answer: low polyreactivity

Question: Which “polyreactivity (PSR sort gate)” value does the source give for “QVQLVESGGGLVQAGGSLRLSCAASGSTFVPNAMGWYRQAPGKERELVAAISSVGSTNYADSVKGRFTISRDNAKNTVYLQMNSLKPEDTAVYYCAVRYPWRYFKYGYWGQGTQVTVSS” here?
Answer: low polyreactivity

Question: With “QVQLVESGGGLVQAGGSLRLSCAASGSTFVPNDMGWYRQAPGKEMELVAGISSGGGTYADSVKGRFTISRDNAKNTVYLQLNSLKPVDTAVYYCNALHAYYVLTPYDYWGQGTQVTVSS” as the sequence, how does the “polyreactivity (PSR sort gate)” value read?
Answer: low polyreactivity

Question: For “QVQLVESGGGLVQAGGSLRLSCAASGSTFVPYAMGWYRQAPGKEREFVAGITWSVGSTYYADSVKGRFTISRDNAKNTVYLQMNSLKPEDTAVYYCNAEIYAYFLWWYGYWGQGTQVTVSS”, which “polyreactivity (PSR sort gate)” value is on record?
Answer: low polyreactivity

Question: Which “polyreactivity (PSR sort gate)” value does the source give for “QVQLVESGGGLVQAGGSLRLSCAASGSTFVQNAMGWYRQAPGKERELVAAISRTGGSTYYADSVKGRITFSRDNAKNTVYLQLNTLKPEDTAVYFCAKRPPHYSWPKIIEFGSWGQGTQVTVSS” here?
Answer: high polyreactivity

Question: For “QVQLVESGGGLVQAGGSLRLSCAASGSTFVRNAMGWYRQAPGKERELVAAITWSTGTTYYADSVKGRFTISRDNAKNTVYLQMNSLKPEDTAVYYCAADIYTELFKHDYWGQGTQVTVSS”, which “polyreactivity (PSR sort gate)” value is on record?
Answer: low polyreactivity

Question: For “QVQLVESGGGLVQAGGSLRLSCAASGSTFVRNDMGWYRQAPGKERELVAAINGDGRTYYADSVKGRFTISRDNAKNTVYLQLNSLKPEDTAVYYCAADGYLLYVQHPNGRRYDYWGQGTQVTVSS”, which “polyreactivity (PSR sort gate)” value is on record?
Answer: low polyreactivity

Question: With “QVQLVESGGGLVQAGGSLRLSCAASGSTFVRNGMGWYRQAPGKERELVASISGRGGSTYYADSVKGRFTISRDNAKNTVYLQMNSLKPEDTAVYYCAVRYGFYSRYNYWGQGTQVTVSS” as the sequence, how does the “polyreactivity (PSR sort gate)” value read?
Answer: high polyreactivity

Question: With “QVQLVESGGGLVQAGGSLRLSCAASGSTFVRYAMGWYRPAPGKERELVAVISSSGGTTYYADSVKGRFTISRDNAKNTVYLQMNSLKPEDTAVYSCARRVRWWGPRRSDFDYWGQGTQVTVSS” as the sequence, how does the “polyreactivity (PSR sort gate)” value read?
Answer: high polyreactivity

Question: For “QVQLVESGGGLVQAGGSLRLSCAASGSTFVRYAMGWYRQAPGKDRELVARISSAGSTNYADSVKGRFTISRDNAKNTVYLQMNSLKPEDTAVYYCAATTKAGVSSGQGDSWGQGTQVTVSS”, which “polyreactivity (PSR sort gate)” value is on record?
Answer: low polyreactivity

Question: With “QVQLVESGGGLVQAGGSLRLSCAASGSTFVRYAMGWYRQAPGKERELVAAITGTGSSTYYADSVKGRFTISRDNAKNTVYLQMNSLKPEDTAVYYCAKRWRTVFGYDYWGQGTQVTVSS” as the sequence, how does the “polyreactivity (PSR sort gate)” value read?
Answer: high polyreactivity
